# From IntAct's records for PubMed 23911326
# B1: Metabotropic glutamate receptor 5 (Mus musculus), Q3UVX5 (parent)
# chain: MVLLLILSVLLLKEDVRGSAQSSERRVVAHMPGDIIIGALFSVHHQPTVDKVHERKCGAVREQYGIQRVEAMLHTLERINSDPTLLPNITLGCEIRDSCWHSAVALEQSIEFIRDSLISSEEEEGLVRCVDGSSSFRSKKPIVGVIGPGSSSVAIQVQNLLQLFNIPQIAYSATSMDLSDKTLFKYFMRVVPSDAQQARAMVDIVKRYNWTYVSAVHTEGNYGESGMEAFKDMSAKEGICIAHSYKIYSNAGEQSFDKLLKKLRSHLPKARVVACFCEGMTVRGLLMAMRRLGLAGEFLLLGSDGWADRYDVTDGYQREAVGGITIKLQSPDVKWFDDYYLKLRPETNLRNPWFQEFWQHRFQCRLEGFAQENSKYNKTCNSSLTLRTHHVQDSKMGFVINAIYSMAYGLHNMQMSLCPGYAGLCDAMKPIDGRKLLDSLMKTNFTGVSGDMILFDENGDSPGRYEIMNFKEMGKDYFDYINVGSWDNGELKMDDDEVWSKKNNIIRSVCSEPCEKGQIKVIRKGEVSCCWTCTPCKENEYVFDEYTCKACQLGSWPTDDLTGCDLIPVQYLRWGDPEPIAAVVFACLGLLATLFVTVIFIIYRDTPVVKSSSRELCYIILAGICLGYLCTFCLIAKPKQIYCYLQRIGIGLSPAMSYSALVTKTNRIARILAGSKKKICTKKPRFMSACAQLVIAFILICIQLGIIVALFIMEPPDIMHDYPSIREVYLICNTTNLGVVTPLGYNGLLILSCTFYAFKTRNVPANFNEAKYIAFTMYTTCIIWLAFVPIYFGSNYKIITMCFSVSLSATVALGCMFVPKVYIILAKPERNVRSAFTTSTVVRMHVGDGKSSSAASRSSSLVNLWKRRGSSGETLRYKDRRLAQHKSEIECFTPKGSMGNGGRATMSSSNGKSVTWAQNEKSTRGQHLWQRLSVHINKKENPNQTAVIKPFPKSTESRGQGAGAGGGSGPGAAGAGSAGCTATGGPEPPDAGPKALYDVAEAEERFPAAARPRSPSPISTLSHLAGSAGRTDDDAPSLHSETAARSSSSQGSLMEQISSVVTRFTANITELNSMMLSTAAAPGPPGTPICSSYLIPKEIQLPTTMTTFAEIQPLPAIEVTGGAQPATGPSPAQETPAGAEAAPGKPDLEELVALTPPSPFRDSVDSGSTTPNSPVSESALCIPSSPKYDTLIIRDYTQSSSSL
# partner: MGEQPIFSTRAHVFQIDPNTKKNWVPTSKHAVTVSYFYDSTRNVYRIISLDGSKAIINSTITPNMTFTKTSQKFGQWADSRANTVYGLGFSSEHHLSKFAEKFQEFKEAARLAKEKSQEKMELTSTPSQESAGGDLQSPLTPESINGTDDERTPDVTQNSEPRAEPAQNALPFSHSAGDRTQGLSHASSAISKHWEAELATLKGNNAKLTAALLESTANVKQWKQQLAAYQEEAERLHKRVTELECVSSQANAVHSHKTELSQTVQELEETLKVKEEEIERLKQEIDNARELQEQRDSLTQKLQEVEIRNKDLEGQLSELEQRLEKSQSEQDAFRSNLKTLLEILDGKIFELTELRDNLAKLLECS
# Variants of: B1
# Details: with Homer1, Q9Z214-1
row,Variant,effect of a mutation on the interaction
1,F1160R,disrupting interaction strength
